According to PMC3517355:

T1: CCHF Altamura Gn 611 peptide (Crimean-Congo hemorrhagic fever virus, UniProt Q8JSZ3)
T1 chain: TQEGRGHVKLSRGSE

B1: E7b-3R (ssDNA)
DNA: ATCCGTCACACCTGCTCTAAAGGATCCTTCTTAGCATCACATTATGATAAGATATGGTGTTGGCTCCCGTAT
B2: E7b-1bR (ssDNA)
DNA: ATCCGTCACACCTGCTCTTTGACACGCGTACGGGTCCGGACATGTCATAACGGACTGGTGTTGGCTCCCGTAT
B3: E7b-6R (ssDNA)
DNA: ATCCGTCACACCTGCTCTTAACCTATTTGGGTCGCGTTCTCAAAATAACTTCTGTGGTGTTGGCTCCCGTAT
B4: E7b-1bF (ssDNA)
DNA: ATACGGGAGCCAACACCAGTCCGTTATGACATGTCCGGACCCGTACGCGTGTCAAAGAGCAGGTGTGACGGAT
B5: E7b-5R (ssDNA)
DNA: ATCCGTCACACCTGCTCTTGGGCATCAGCGGGCGATGCATGCGATAAATTAGTGTGGTGTTGGCTCCCGTAT
B6: E7b-1aF (ssDNA)
DNA: ATACGGGAGCCAACACCATAATTCAAGAGGATTCCTCAAAATATGAAGCTTCCAGAGCAGGTGTGACGGAT
B7: E7b-8a/10/16-19/23-25R (ssDNA)
DNA: ATCCGTCACACCTGCTCTTGACACGCGTACGGGTCCGGACATGTCATAACGGACTGGTGTTGGCTCCCGTAT
B8: E7b-14R (ssDNA)
DNA: ATCCGTCACACCTGCTCTTGACGCGCGAACGGGTCCGGACACGTCATAACGGAATGGTGCTGGCTCCCGTAA
B9: E7b-20/21R (ssDNA)
DNA: ATCCGTCACACCTGCTCTCGCTGAAGCAAGACATTATCGGGACATTGCCGTGATGGTGTTGGCTCCCGTAT
B10: E7b-1aR (ssDNA)
DNA: ATCCGTCACACCTGCTCTGGAAGCTTCATATTTTGAGGAATCCTCTTGAATTATGGTGTTGGCTCCCGTAT
B11: Gn6-5F (ssDNA)
DNA: ATACGGGAGCCAACACCACGCCTTGTCTATTCTCTTAGTTTCCTGCTACTCCACAGAGCAGGTGTGACGGAT
B12: Gn6-18F (ssDNA)
DNA: ATACGGGAGCCAACACCATACGCACCCGCATTCGTTAGTGTGTACAGTATGTCCAGAGCAGGTGTGACGGAT
B13: Gn6-7bR (ssDNA)
DNA: ATCCGTCACACCTGCTCTCACATACTGGTCAGTCTCTATCGAGGCGGGCATTGGTGTTGGCTCCCGTAT
B14: Gn6-16cF (ssDNA)
DNA: ATACGGGAGCCAACACCAGAGCACACTAATCATGGCGGCCCGGCGCATCCCGACAGAGCAGGTGTGACGGAT
B15: Gn6-6R (ssDNA)
DNA: ATCCGTCACACCTGCTCTGCATATAAATTTTTAACAAGGGACTGGTAACTATCCTGGTGTTGGCTCCCGTAT
B16: Gn6-25R (ssDNA)
DNA: ATCCGTCACACCTGCTCTACAGTTAGAGCTTGCCGTATGCCTTTGTTAACATAATGGTGTTGGCTCCCGTAT
B17: Gn6-17F (ssDNA)
DNA: ATACGGGAGCCAACACCAAACTAGACAACCGCCCTTATACACACTGTACCAGTAGAGCAGGTGTGACGGAT
B18: Gn6-30F (ssDNA)
DNA: ATACGGGAGCCAACACCATCCCACCGAATATCCGCTTTCCTCGTCCTCCTTTCAGAGCAGGTGTGACGGAT
B19: Gn6-16cR (ssDNA)
DNA: ATCCGTCACACCTGCTCTGTCGGGATGCGCCGGGCCGCCATGATTAGTGTGCTCTGGTGTTGGCTCCCGTAT
B20: Gn6-15R (ssDNA)
DNA: ATCCGTCACACCTGCTCTGGGCCAGGTAAGAAGATGCGAGCTGTGTAATACATGTGGTGTTGGCTCCCGTAT
B21: E7a-11R (ssDNA)
DNA: ATCCGTCACACCTGCTCTCGTGTGATATATATGGTAAGGGGGGTTAGTACTGCTGGTGTTGGCTCCCGTAT
B22: E7a-23F (ssDNA)
DNA: ATACGGGAGCCAACACCATGTCAGGACCTCCATCGCCCGGGCCCGCCGCCGCTGAGAGCAGGTGTGAC
B23: E7a-20R (ssDNA)
DNA: ATCCGTCACACCTGCTCTGGTTAAACGATATGGGGCCTGCCGTTATAACTGCGTGGTGTTGGCTCCCGTAT
B24: E7a-20F (ssDNA)
DNA: ATACGGGAGCCAACACCACGCAGTTATAACGGCAGGCCCCATATCGTTTAACCAGAGCAGGTGTGACGGAT
B25: E7a-33R (ssDNA)
DNA: ATCCGTCACACCTGCTCTACATCACATCTGACTGAGTCCATGGCGCTCTGTGTGTGGTGTTGGCTCCCGTAT
B26: E7a-33F (ssDNA)
DNA: ATACGGGAGCCAACACCACACACAGAGCGCCATGGACTCAGTCAGATGTGATGTAGAGCAGGTGTGACGGAT
B27: E7a-29F (ssDNA)
DNA: ATACGGCAGCCAACACCACACACATAGCGCTTTGTATTCAGCCGGATGTGATGTAGAGCAGGTGTGACGGAT
B28: E7a-8R (ssDNA)
DNA: ATCCGTCACACCTGCTCTCGCTGAAGCAAGACATTATCGGGACATTGCCGTGATGGTGTTGGCTCCCGTAT
B29: E7a-18F (ssDNA)
DNA: ATACGGGAGCCAACACCAACAGATGGATAAGGGGGAAACTGCCCATTCGGTTAGTAGAGCAGGTGTGACGGAT
B30: E7a-5R (ssDNA)
DNA: ATCCGTCACACCTGCTCTTGACACGCGTACGGGGTCCGGACATGTCATAACGGACTGGTGTTGGCTCCCGTAT
B31: E7c-23/25R (ssDNA)
DNA: ATCCGTCACACCTGCTCTACAGTTAGAGCTTGCCGTATGCCTTTGTTAACATAATGGTGTTGGCTCCCGTAT

What follows are binders tested against CCHF 11E7b peptide (Crimean-Congo hemorrhagic fever virus, UniProt Q8JSZ3) (assay: ELASA; […] (0.5 M NaCl, 10 mM Tris-HCl, 1 mM MgCl2, pH 7.5-7.6), 1 h, RT (~25 C); […]). Conditions: label: 5'-biotin.
B1 was tested, and the binding signal was 1.94 A405. Binder B2 has a binding signal of 2.07 A405. Binder B3 has a binding signal of 1.86 A405. B4 gave a binding signal of 1.88 A405. B5 gave a binding signal of 1.86 A405. B6 was tested, and the binding signal was 1.83 A405. In the case of B7, the binding signal is reported as 2 A405. B8 gave a binding signal of 1.9 A405. B9 was tested, and the binding signal was 1.78 A405. In the case of B10, the binding signal is reported as 2 A405.

Biological target: T1, CCHF Altamura Gn 611 peptide
Experiment: as above
Conditions: label: 5'-biotin
For B11, the binding signal was 1.75 A405. Work on B12 yielded a binding signal of 1.86 A405. For B13, the binding signal was 1.69 A405. B14 gave a binding signal of 1.9 A405. In the case of B15, the binding signal is reported as 1.64 A405. Work on B16 yielded a binding signal of 1.94 A405. B17 showed a binding signal of 1.82 A405. B18 showed a binding signal of 1.75 A405. B19 gave a binding signal of 1.67 A405. B20 was tested, and the binding signal was 1.63 A405.

The binders below were run against CCHF 11E7a peptide (Crimean-Congo hemorrhagic fever virus, UniProt Q8JSZ3) in the same assay as above. Conditions: label: 5'-biotin.
Work on B21 yielded a binding signal of 2.07 A405. With B22 the binding signal was 2.23 A405. Work on B23 yielded a binding signal of 2.04 A405. Binder B24 has a binding signal of 2.02 A405. In the case of B25, the binding signal is reported as 2.12 A405. With B26 the binding signal was 2.07 A405. In the case of B27, the binding signal is reported as 2.06 A405. In the case of B28, the binding signal is reported as 2.04 A405. Work on B29 yielded a binding signal of 2.08 A405. B30 was tested, and the binding signal was 2.08 A405.

What follows are binders tested against CCHF 11E7c peptide (Crimean-Congo hemorrhagic fever virus, UniProt Q8JSZ3) in the same assay as above. Conditions: label: 5'-biotin.
B31 was tested, and the binding signal was 2.12 A405.
